Test results from publication doi:10.1101/2022.04.11.487887 (bioRxiv, 2022).
No end group written: not given here.

What was measured:
[1] = target: Halo-Xenopus γTuNA-GCN4 F75A (Xenopus laevis | yeast); test: SEC
[2] = target: Halo-Xenopus γTuNA-GCN4 I67A (Xenopus laevis | yeast); test: SEC
[3] = target: Halo-Xenopus γTuNA-GCN4 L70A (Xenopus laevis | yeast); test: SEC
[4] = target: Halo-Xenopus γTuNA-GCN4 L77A (Xenopus laevis | yeast); test: SEC
[5] = target: Halo-Xenopus γTuNA-GCN4 wildtype (Xenopus laevis | yeast); test: SEC
[6] = target: Halo-3C-AU1 reporter tagged human γTuNA, after PreScission (3C) cleavage (human); test: co-sedimentation
[7] = target: Strep-His-Halo-3C-Xenopus γTuNA I67A (Xenopus laevis); test: pull-down
[8] = target: Strep-His-Halo-3C-Xenopus γTuNA L70A (Xenopus laevis); test: pull-down
[9] = target: Strep-His-TEV-HaloTag-3C-Xenopus γTuNA (Xenopus laevis); test: pull-down
[10] = target: the molecule itself; test: SEC

Chain of Xenopus γ-tubulin ring complex (γTuRC) (Q5U4M5 whole entry, looked up): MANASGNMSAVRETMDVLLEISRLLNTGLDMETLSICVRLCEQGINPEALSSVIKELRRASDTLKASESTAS
Chain of Xenopus γ-tubulin ring complex (γTuRC) (P23330 whole entry, looked up): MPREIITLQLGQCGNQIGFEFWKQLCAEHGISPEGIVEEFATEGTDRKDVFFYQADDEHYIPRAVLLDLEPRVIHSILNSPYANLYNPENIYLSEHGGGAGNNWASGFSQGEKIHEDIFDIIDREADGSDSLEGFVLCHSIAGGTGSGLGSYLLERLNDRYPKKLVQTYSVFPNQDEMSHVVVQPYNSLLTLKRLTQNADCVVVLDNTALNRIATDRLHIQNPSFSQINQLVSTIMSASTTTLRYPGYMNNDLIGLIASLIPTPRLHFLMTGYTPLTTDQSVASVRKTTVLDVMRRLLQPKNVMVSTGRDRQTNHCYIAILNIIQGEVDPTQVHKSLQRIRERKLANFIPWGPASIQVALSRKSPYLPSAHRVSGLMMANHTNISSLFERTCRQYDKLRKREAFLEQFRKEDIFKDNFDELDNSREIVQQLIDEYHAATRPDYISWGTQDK

Molecule: Halo-Xenopus γTuNA-GCN4 F75A
- stoichiometry N [1]: 2

Molecule: Halo-Xenopus γTuNA-GCN4 I67A
- stoichiometry N [2]: 2

Molecule: Halo-Xenopus γTuNA-GCN4 L70A
- stoichiometry N [3]: 2

Molecule: Halo-Xenopus γTuNA-GCN4 L77A
- stoichiometry N [4]: 2

Molecule: Halo-Xenopus γTuNA-GCN4 wildtype
- stoichiometry N [5]: 2

Molecule: Xenopus γ-tubulin ring complex (γTuRC) (from UniProt P23330 1-451; Q5U4M5 1-72)
- percent of purified γTuRCs that lost their γTuNA dimer [6]: 66%
- percent of the wildtype's γTuRC binding [7]: 85%
- percent of the wildtype's γTuRC binding [8]: 50%
- percent of γ-tubulin signal lost from the extract after one round of depletion [9]: > 75%

Molecule: MKDFEKQIAELKKENFNLKLRIYFLEEQVQQKCDNSSEDLYRMNIE (domain or fragment, Xenopus laevis, not fully specified (N-terminus)) [Strep-His-TEV-HaloTag-3C-Xenopus γTuNA]
- stoichiometry N [10]: 2

Molecule: MKDFEKQIAEAKKENFNLKLRIYFLEEQVQQKCDNSSEDLYRMNIE (domain or fragment, Xenopus laevis, not fully specified (N-terminus)) [Strep-His-Halo-3C-Xenopus γTuNA L70A]
- binding result [10]: binds

Molecule: MKDFEKQAAELKKENFNLKLRIYFLEEQVQQKCDNSSEDLYRMNIE (domain or fragment, Xenopus laevis, not fully specified (N-terminus)) [Strep-His-Halo-3C-Xenopus γTuNA I67A]
- binding result [10]: binds

Molecule: MKDAEKQIAELKKENFNLKLRIYFLEEQVQQKCDNSSEDLYRMNIE (domain or fragment, Xenopus laevis, not fully specified (N-terminus)) [Strep-His-Halo-3C-Xenopus γTuNA F63A]
- binding result [10]: binds

Molecule: MKDFEKQIAELKKENANLKLRIYFLEEQVQQKCDNSSEDLYRMNIE (domain or fragment, Xenopus laevis, not fully specified (N-terminus)) [Strep-His-TEV-HaloTag-3C-Xenopus γTuNA F75A]
- binding result [10]: binds

Molecule: MKDFEKQIAELKKENFNAKLRIYFLEEQVQQKCDNSSEDLYRMNIE (domain or fragment, Xenopus laevis, not fully specified (N-terminus)) [Strep-His-Halo-3C-Xenopus γTuNA L77A]
- binding result [10]: binds

Molecule: SPTRARNMKDFENQITELKKENFNLKLRIYFLEERMQQEFHGPTEH (domain or fragment, not fully specified (N-terminus)) [Strep-His-TEV-HaloTag-3C-human γTuNA]
- stoichiometry N [10]: 2
